Source: patent US20250276050A1
Blank lines part the entries; values can stand above or below the molecule they belong to.

Key:
[1] = target: heterodimeric IL-1RL1/IL-1RAcP on the surface of HEK-Blue IL-33 cells (human) (UniProt Q01638); assay: cell-based or functional assay
[2] = target: receptor subunits IL4Rα and IL-13Rα1 naturally expressed on HEK-Blue IL-4/IL-13 cells (UniProt P24394); assay: cell-based or functional assay

SEAP reporter enzyme readout, EC50 (HEK-Blue IL-33 cells) [1]: 10 ng/mL
Molecule: His6-cIL-33-CS (amino acids 110-263 of dog IL-33 with the 3 cysteines replaced by serine, start methionine and N-terminal His6-tag, expressed in E. coli) (from UniProt O97863 110-263) (ligand)

SEAP reporter enzyme readout, EC50 (HEK-Blue IL-4/IL-13 cells) [2]: 2 ng/mL
B1: cIL-13-His6 (canine IL-13 with start methionine and C-terminal His6-tag, expressed in E. coli) (ligand)
chain: MSPSPVTPSPTLKELIEELVNITQNQASLCNGSMVWSVNLTAGMYCAALESLINVSDCSAIQRTQRMLKALCSQKPAAGQISSERSRDTKIEVIQLVKNLLTYVRGVYRHGNFRHHHHHH
